According to patent US20240270846A1 (published 2024):
Residue numbers refer to the chain shown, from its start. Names may count otherwise.

B1: CE115HA000 D101F one-arm antibody (antibody, human IgG1, kappa, L234A L235A, N297A, name in Kabat numbering)
heavy: QVQLVESGGGVVQPGRSLRLSCAASGFTFSNAWMHWVRQAPGKGLEWVAQIKAKSNNYATYYAESVKGRFTISRDDSKNSLYLQMNSLKTEDTAVYYCRYVHYGAYYGVFAWGQGTTVTVSSASTKGPSVFPLAPSSKSTSGGTAALGCLVKDYFPEPVTVSWNSGALTSGVHTFPAVLQSSGLYSLSSVVTVPSSSLGTQTYICNVNHKPSNTKVDKKVEPKSCDKTHTCPPCPAPEAAGGPSVFLFPPKPKDTLMISRTPEVTCVVVDVSHEDPEVKFNWYVDGVEVHNAKTKPREEQYASTYRVVSVLTVLHQDWLNGKEYKCKVSNKALPAPIEKTISKAKGQPREPQVYTLPPSRCELTKNQVSLSCAVKGFYPSDIAVEWESNGQPENNYKTTPPVLDSDGSFFLVSKLTVDKSRWQQGNVFSCSVMHEALHNHYTQKSLSLSPDYKDDDDK
chain: EPKSSDKTHTCPPCPAPELLGGPSVFLFPPKPKDTLMISRTPEVTCVVVDVSHEDPEVKFNWYVDGVEVHNAKTKPREEQYNSTYRVVSVLTVLHQDWLNGKEYKCKVSNKALPAPIEKTISKAKGQPREPQVCTLPPSRDELTKNQVSLWCLVKGFYPSDIAVEWESNGQPENNYKTTPPVLDSDGSFFLYSKLTVDKSRWQQGNVFSCSVMHEALHNRYTQKSLSLSP
light: DIVMTQSPLSLPVTPGEPASISCRSSQSLVHSNRNTYLHWYQQKPGQAPRLLIYKVSNRFSGVPDRFSGSGSGTDFTLKISRVEAEDVGVYYCGQGTQVPYTFGQGTKLEIKRTVAAPSVFIFPPSDEQLKSGTASVVCLLNNFYPREAKVQWKVDNALQSGNSQESVTEQDSKDSTYSLSSTLTLSKADYEKHKVYACEVTHQGLSSPVTKSFNRGEC
notes: one-arm antibody (one Fab)
B2: CE115HA000 D101I one-arm antibody (antibody, human IgG1, kappa, L234A L235A, N297A, name in Kabat numbering)
heavy: B1 heavy with F110I
chain: B1 chain
light: B1 light
notes: one-arm antibody (one Fab)
B3: CE115HA000 G98D one-arm antibody (antibody, human IgG1, kappa, L234A L235A, N297A, name in Kabat numbering)
heavy: B1 heavy with G104D, F110D
chain: B1 chain
light: B1 light
notes: one-arm antibody (one Fab)
B4: CE115HA000 D101Y one-arm antibody (antibody, human IgG1, kappa, L234A L235A, N297A, name in Kabat numbering)
heavy: B1 heavy with F110Y
chain: B1 chain
light: B1 light
notes: one-arm antibody (one Fab)
B5: CE115HA000 G98P one-arm antibody (antibody, human IgG1, kappa, L234A L235A, N297A, name in Kabat numbering)
heavy: B1 heavy with G104P, F110D
chain: B1 chain
light: B1 light
notes: one-arm antibody (one Fab)
B6: CE115HA000 E61Q one-arm antibody (antibody, human IgG1, kappa, L234A L235A, N297A, name in Kabat numbering)
heavy: B1 heavy with E64Q, F110D
chain: B1 chain
light: B1 light
notes: one-arm antibody (one Fab)
B7: CE115HA000 G100bL one-arm antibody (antibody, human IgG1, kappa, L234A L235A, N297A, name in Kabat numbering)
heavy: B1 heavy with G108L, F110D
chain: B1 chain
light: B1 light
notes: one-arm antibody (one Fab)
B8: CE115HA000 G100bE one-arm antibody (antibody, human IgG1, kappa, L234A L235A, N297A, name in Kabat numbering)
heavy: B1 heavy with G108E, F110D
chain: B1 chain
light: B1 light
notes: one-arm antibody (one Fab)
B9: CE115HA000 G98A one-arm antibody (antibody, human IgG1, kappa, L234A L235A, N297A, name in Kabat numbering)
heavy: B1 heavy with G104A, F110D
chain: B1 chain
light: B1 light
notes: one-arm antibody (one Fab)
B10: CE115HA000 G100bY one-arm antibody (antibody, human IgG1, kappa, L234A L235A, N297A, name in Kabat numbering)
heavy: B1 heavy with G108Y, F110D
chain: B1 chain
light: B1 light
notes: one-arm antibody (one Fab)
B11: CE115HA000 D101H one-arm antibody (antibody, human IgG1, kappa, L234A L235A, N297A, name in Kabat numbering)
heavy: B1 heavy with F110H
chain: B1 chain
light: B1 light
notes: one-arm antibody (one Fab)
B12: CE115HA000 G98T one-arm antibody (antibody, human IgG1, kappa, L234A L235A, N297A, name in Kabat numbering)
heavy: B1 heavy with G104T, F110D
chain: B1 chain
light: B1 light
notes: one-arm antibody (one Fab)
B13: CE115HA000 D101N one-arm antibody (antibody, human IgG1, kappa, L234A L235A, N297A, name in Kabat numbering)
heavy: B1 heavy with F110N
chain: B1 chain
light: B1 light
notes: one-arm antibody (one Fab)
B14: CE115HA000 E61P one-arm antibody (antibody, human IgG1, kappa, L234A L235A, N297A, name in Kabat numbering)
heavy: B1 heavy with E64P, F110D
chain: B1 chain
light: B1 light
notes: one-arm antibody (one Fab)
B15: CE115HA000 D101P one-arm antibody (antibody, human IgG1, kappa, L234A L235A, N297A, name in Kabat numbering)
heavy: B1 heavy with F110P
chain: B1 chain
light: B1 light
notes: one-arm antibody (one Fab)
B16: CE115HA000 G100bS one-arm antibody (antibody, human IgG1, kappa, L234A L235A, N297A, name in Kabat numbering)
heavy: B1 heavy with G108S, F110D
chain: B1 chain
light: B1 light
notes: one-arm antibody (one Fab)
B17: CE115HA000 D101S one-arm antibody (antibody, human IgG1, kappa, L234A L235A, N297A, name in Kabat numbering)
heavy: B1 heavy with F110S
chain: B1 chain
light: B1 light
notes: one-arm antibody (one Fab)
B18: CE115HA000 G100bD one-arm antibody (antibody, human IgG1, kappa, L234A L235A, N297A, name in Kabat numbering)
heavy: B1 heavy with G108D, F110D
chain: B1 chain
light: B1 light
notes: one-arm antibody (one Fab)
B19: CE115HA000 G98R one-arm antibody (antibody, human IgG1, kappa, L234A L235A, N297A, name in Kabat numbering)
heavy: B1 heavy with G104R, F110D
chain: B1 chain
light: B1 light
notes: one-arm antibody (one Fab)
B20: CE115HA000 D101G one-arm antibody (antibody, human IgG1, kappa, L234A L235A, N297A, name in Kabat numbering)
heavy: B1 heavy with F110G
chain: B1 chain
light: B1 light
notes: one-arm antibody (one Fab)
B21: CE115HA000 D101M one-arm antibody (antibody, human IgG1, kappa, L234A L235A, N297A, name in Kabat numbering)
heavy: B1 heavy with F110M
chain: B1 chain
light: B1 light
notes: one-arm antibody (one Fab)
B22: CE115HA000 G98S one-arm antibody (antibody, human IgG1, kappa, L234A L235A, N297A, name in Kabat numbering)
heavy: B1 heavy with G104S, F110D
chain: B1 chain
light: B1 light
notes: one-arm antibody (one Fab)
B23: CE115HA000 D101T one-arm antibody (antibody, human IgG1, kappa, L234A L235A, N297A, name in Kabat numbering)
heavy: B1 heavy with F110T
chain: B1 chain
light: B1 light
notes: one-arm antibody (one Fab)
B24: CE115HA000 G100bF one-arm antibody (antibody, human IgG1, kappa, L234A L235A, N297A, name in Kabat numbering)
heavy: B1 heavy with G108F, F110D
chain: B1 chain
light: B1 light
notes: one-arm antibody (one Fab)
B25: CE115HA000 G98Q one-arm antibody (antibody, human IgG1, kappa, L234A L235A, N297A, name in Kabat numbering)
heavy: B1 heavy with G104Q, F110D
chain: B1 chain
light: B1 light
notes: one-arm antibody (one Fab)
B26: CE115HA000 D101K one-arm antibody (antibody, human IgG1, kappa, L234A L235A, N297A, name in Kabat numbering)
heavy: B1 heavy with F110K
chain: B1 chain
light: B1 light
notes: one-arm antibody (one Fab)
B27: CE115HA000 D101Q one-arm antibody (antibody, human IgG1, kappa, L234A L235A, N297A, name in Kabat numbering)
heavy: B1 heavy with F110Q
chain: B1 chain
light: B1 light
notes: one-arm antibody (one Fab)
B28: CE115HA000 D101V one-arm antibody (antibody, human IgG1, kappa, L234A L235A, N297A, name in Kabat numbering)
heavy: B1 heavy with F110V
chain: B1 chain
light: B1 light
notes: one-arm antibody (one Fab)
B29: CE115HA000 D101R one-arm antibody (antibody, human IgG1, kappa, L234A L235A, N297A, name in Kabat numbering)
heavy: B1 heavy with F110R
chain: B1 chain
light: B1 light
notes: one-arm antibody (one Fab)
B30: CE115HA000 G98K one-arm antibody (antibody, human IgG1, kappa, L234A L235A, N297A, name in Kabat numbering)
heavy: B1 heavy with G104K, F110D
chain: B1 chain
light: B1 light
notes: one-arm antibody (one Fab)
B31: CE115HA000 G98H one-arm antibody (antibody, human IgG1, kappa, L234A L235A, N297A, name in Kabat numbering)
heavy: B1 heavy with G104H, F110D
chain: B1 chain
light: B1 light
notes: one-arm antibody (one Fab)
B32: CE115HA000 G98Y one-arm antibody (antibody, human IgG1, kappa, L234A L235A, N297A, name in Kabat numbering)
heavy: B1 heavy with G104Y, F110D
chain: B1 chain
light: B1 light
notes: one-arm antibody (one Fab)
B33: CE115HA000 D101L one-arm antibody (antibody, human IgG1, kappa, L234A L235A, N297A, name in Kabat numbering)
heavy: B1 heavy with F110L
chain: B1 chain
light: B1 light
notes: one-arm antibody (one Fab)

What follows are binders tested against T1, CD3 epsilon homodimer protein (UniProt P07766 23-126) (assay: SPR Biacore T200, CD3 epsilon homodimer on CM4 chip, antibody as analyte;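 also: Amine-coupled CD3 epsilon homodimer, run at 25 °C in HBS-EP+ buffer, ratio is bound amount of each single-residue H chain variant over that of the parent antibody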).
T1 construct: Immobilized on Sensor chip CM4 by amine coupling; construct not described; also called CD3 (CD3 epsilon)
T1 sequence (P07766 23-126): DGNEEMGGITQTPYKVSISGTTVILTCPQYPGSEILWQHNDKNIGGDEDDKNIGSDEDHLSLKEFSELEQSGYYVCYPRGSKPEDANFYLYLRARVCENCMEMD

In order of falling “ratio of amounts bound (Y/X vs CE115HA000)” value:
1. B19  2.96
2. B30  2.83
3. B27  2.35
4. B32  2.22
5. B13  2.02
6. B31  1.58
7. B20  1.38
8. B28  1.33
9. B25  1.22
10. B11  1.21
11. B21  1.2
12. B2  1.18
13. B17  1.16
14. B9  1.1
15. B6  1.07
16. B14  1.07
17. B12  1.05
18. B5  1.02
19. B22  1.01
20. B23  0.79
21. B1  0.75
22. B26  0.63
23. B33  0.62
24. B16  0.52
25. B4  0.49
26. B24  0.3
27. B7  0.27
28. B18  0.27
29. B3  0.26
30. B8  0.26
31. B29  0.24
32. B10  0.23
33. B15  0.2
